In patent US7572770B2, “Use of an interleukin 1 receptor antagonist and/or pyrrolidinedithiocarbamate for the treatment or prophylaxis of type 2 diabetes” (University of Zurich, priority 2002, dated 2009):

How the values were obtained:
Fas = Fas expression in human islets (Western blot, RT-PCR, immunostaining); type: cell-based; conditions: 33.3 mM glucose with IL-1Ra
Method: Western blot analysis. Islets were cultured in a culture medium in non-adherent plastic dishes. One day after isolation, the medium was changed and groups of 200 islets were incubated for 44 hours in culture medium containing 5.5 or 33.3 mM glucose without or with 2 ng/ml IL-1β or 500 ng/ml IL-1Ra. At the end of the incubations, islets were washed in PBS, suspended in 50 μl sample buffer containing 125 mM Tris-HCl, pH 6.8, 4% SDS, 10% glycerol, 0.3% bromphenol blue, 1.8% β-mercaptoethanol and boiled for 5 min. Equivalent amounts of each treatment group were run on 15% SDS polyacrylamide gels. […] Intensity of bands was analyzed using Multianalyst™ (Bio Rad, Laboratories inc., Hercules, Calif.).
RNA extraction, RT-PCR and sequencing of RT-PCR product. […] The conditions of the PCR amplification for IL-1β and Fas were: denaturation 30 seconds at 94° C., annealing 30 seconds at 60° C. and elongation 30 seconds at 72° C., followed for real time PCR by quantification 5 seconds at 80° C., 45 cycles. […] For quantitative analysis, we used the Light Cycler quantitative PCR system (Roche, Basel, Switzerland) and performed quantitative PCR with a commercial kit (Light Cycler-DNA Master SYBR Green I; Roche). […]

type II IL-1R = molecular target: T1, type II IL-1R (Homo sapiens, UniProt P27930); conditions: read-out: Kd, binding to type II IL-1R; cited from earlier work
T1 sequence (P27930 14-398): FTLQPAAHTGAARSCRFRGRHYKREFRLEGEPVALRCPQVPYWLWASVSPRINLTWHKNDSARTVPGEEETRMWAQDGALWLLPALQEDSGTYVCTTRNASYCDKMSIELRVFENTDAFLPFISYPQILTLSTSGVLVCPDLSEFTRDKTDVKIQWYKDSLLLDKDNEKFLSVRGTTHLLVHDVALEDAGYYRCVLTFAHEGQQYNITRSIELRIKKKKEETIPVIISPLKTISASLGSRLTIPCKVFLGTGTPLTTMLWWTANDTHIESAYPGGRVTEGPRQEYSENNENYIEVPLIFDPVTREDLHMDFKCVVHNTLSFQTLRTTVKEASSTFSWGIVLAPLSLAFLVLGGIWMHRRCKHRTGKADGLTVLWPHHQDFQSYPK

[1] = cited from earlier work

For “Interleukin 1 receptor antagonist [IL-1Ra]”, the “glucose-dependent induction of Fas-receptor protein and mRNA” value (Fas) is given as “hindered”, the Kd (type II IL-1R) is given as 7 nM and the patients with infections ([1]; human, in vivo) is given as 40%. The “patients with serious infections” value ([1]; human, in vivo) was 1.8%, the “patients developing neutropenia (absolute neutrophil count 1×10^9/l or less)” value ([1]; placebo-controlled trials, rheumatoid arthritis) was 0.3% and the “patients requiring discontinuation of treatment (injection site reactions)” value ([1]; rheumatoid arthritis patients) was “up to 5%”. The “most commonly reported adverse effects” value ([1]; subcutaneous treatment, rheumatoid arthritis patients) was “Injection site reactions”.
